Results on two molecules are retold here after patent US20110183917A1 (UNIVERSITY OF MARYLAND BALTIMORE, published 2011).

In test [1] the target is T1, synMDMX (synthetic MDMX comprising amino acids 24-108 of the full length MDMX protein) (human, UniProt O15151 24-108).
T1 construct: range 24-108; A biotinylated form was the bait in the phage selections; also called MDM4; biotin-synMDMX
T1 sequence (looked up): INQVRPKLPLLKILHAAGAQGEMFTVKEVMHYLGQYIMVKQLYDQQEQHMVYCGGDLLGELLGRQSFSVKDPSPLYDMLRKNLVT
Kind of test: phage display selection, peptide on M13 pIII, biotin-synMDMX as bait.

Test [2] addresses T2, synMDM2 (synthetic MDM2 comprising amino acids 25-109 of the full length MDM2 protein) (human, UniProt Q00987 25-109).
T2 construct: range 25-109; A biotinylated form (biotin-synMDM2) was the bait in the phage selections; also called biotin-synMDM2
The experiment in a line: phage display selection, peptide on M13 pIII, biotin-synMDM2 as bait.

Test [3] addresses T1, synMDMX (synthetic MDMX comprising …). The experiment in a line: SPR competition, immobilized 15-29p53.

T2 sequence (Q00987 25-109 limits assumed): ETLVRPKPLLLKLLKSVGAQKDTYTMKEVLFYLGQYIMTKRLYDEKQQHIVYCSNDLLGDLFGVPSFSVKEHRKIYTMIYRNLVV

B1: L-PMI-2 (peptide)
peptide: DDWFQRVWSPLM
notes: Reported only as a phage clone: the 12-mer was fused through a GlyGlyGlySer spacer to the N-terminus of M13 pIII
As to B1, the binding result in test [1] and in test [2] was “binds” in each case.
In the case of CYSFDCLWKCLAMGFSSGKCINSKCKC (designed binder, also called L-Stoppin-1) [stoppin-1], in test [3], the “fold lower affinity than 15-29p53” value was roughly 4 fold.
